Key:
Tresu_2185 (CARD1) = format: biochemical, Treponema succinifaciens
Experimental: (§1) The reactions were done in a reaction buffer (20 mM Tris-HCl, pH 7.5, 150 mM NaCl, 1 mM DTT, and 5 mM MnCl2, unless otherwise stated, with 250 nM CARD1 and 2.5 uM of cA4, with 2 μg M13 ssDNA (NEB) (FIG. 1b), 500 ng of non-linearized and linearized ΦX174 dsDNA (NEB) (FIGS. 1d, e, respectively) and 2 μg ΦX174 ssDNA (NEB) (FIG. 1a). cA4 and cA6 was obtained from Biolog Life Science Institute GmbH & Co. KG (Bremen, Germany). The reaction products were visualized by agarose gel electrophoresis. For the RNA oligo cleavage assay, 250 nM of a Cy3-labelled RNA oligo was added to the reaction. The reaction products were run on Mini-PROTEAN TBE-Urea precast gel (Bio-Rad), and visualized on a TYPHOON IMAGE SCANNER. For degradation of ssRNA or dsRNA ladders, 1 ug of either ssRNA ladder (NEB) or dsRNA ladder (NEB) was digested. The reaction products were visualized by agarose gel electrophoresis. At the indicated timepoints, all reaction were stopped by the addition of 25 mM of EDTA.

[1] = system: circular ΦX174 and M13 ssDNA; assay: In vitro DNA cleavage assay, agarose gel; format: biochemical
Experimental: as §1

pTarget = assay: Plasmid curing assay; format: cell-based, Staphylococcus aureus; settings: but not pCRISPR
Experimental: To assess CARD1's ability to promote plasmid curing under low transcription conditions, a plasmid curing assay was performed, by adapting a known approach. Briefly, overnight cultures of S. aureus cells harbouring pTarget and a pCRISPR containing either Csm6, dCsm6, or CARD1 were diluted to exactly OD 0.15 in tryptic soy broth with 10 ug/ml chloramphenicol. After removing a cell aliquot for the 0 timepoint, aTc was added to a concentration of 9.3 ng/ml (FIG. 4e) or 125 ng/ml (FIG. 4f) and the cells were incubated at 37° C., with further aliquots taken at the indicated times. The cells were then lysed, and the plasmid DNA isolated using a QIAprep Miniprep kit (Qiagen) according to the manufacturer's protocol (Qiagen). 400 ng of plasmid was then linearized using BamHI-HF (New England Biolabs), which cuts both pTarget and pCRISPR once, followed by visualization by gel electrophoresis.

phage Φ12γ3 [2] = assay: Liquid anti-phage infection, PFU counts over time; format: cell-based, Staphylococcus aureus RN4220
Experimental: To obtain CFU and PFU counts over time from cultures infected with phage, RN4220 cultures harbouring various pCRISPRs were launched overnight, diluted 1:100, and outgrown for about one hour. Cells were then infected with phage Φ12γ3 at an MOI of 10, and an aliquot was taken shortly after to obtain PFUs at time 0. The cultures were then incubated further, with aliquots taken at 1 and 4 hours.

[3] = system: ssRNA ladder, dsRNA ladder; assay: Degradation of ssRNA or dsRNA ladders; format: biochemical; settings: 15 minutes
Experimental: as §1

phage Φ12γ3 [4] = assay: In vivo anti-phage immunity growth curves (Φ12γ3); format: cell-based, Staphylococcus aureus RN4220
Experimental: For in vivo anti-phage immunity, cells harbouring various pCRISPRs were launched in triplicate overnight, diluted 1:100, outgrown for about an hour, and normalized for OD. Cells were seeded into a 96 well plate. Phage Φ12γ3 (25) […] was added at the appropriate multiplicity of infection, and OD measurements were taken every 10 minutes.

M13 ssDNA = assay: Next-generation sequencing of ssDNA degradation products (M13); format: biochemical
Experimental: (§2) To assess the ssDNA cleavage patterns of CARD1, 2 ug of ΦX174 virion DNA (New England Biolabs) or M13 ssDNA (M13mp18) (New England Biolabs) was first digested by 250 nM CARD1 with 2.5 uM of cA4 in a buffer consisting of 20 mM Tris pH 7.5, 150 mM NaCl, 1 mM DTT, and 5 mM MnCl2. At the specified time points, the reaction was quenched by adding 25 mM of EDTA. Half the reaction was visualized by agarose gel electrophoresis. The remaining digestion products from the 2 hour timepoint were purified by phenol chloroform extraction.
Without further fragmentation, the purified digested DNA was subjected to the Accel-NGS 1S Plus DNA Library Kit (Swift Biosciences), proceeding according to the manufacturer's protocol, using a 1.5× ratio of magnetic beads (AMPure XP beads by Beckman Coulter) to also include small DNA fragments. One of the library preparation steps involves the addition of on average 8 nucleotides to the 3′ end of the DNA. […] The 5′ end of each read R1 represents the start of a DNA molecule, and thus a CARD1 cut site. Using a custom python script, the location of 7,020,067 ΦX174 reads (mapping to Genbank reference NC_001422) and 7,670,616 M13 reads (mapping to Genbank reference X02513) was determined. To account for reads mapping at the circular junctions, 65 nucleotides of the first 5′ end of the maps were copied and added at the 3′ end of the maps. […]

[5] = system: RNA oligos with either 15 adenines, uracils, or cytosines; settings: 5′ fluorophore and 3′ quencher; 15 A, U or C
Experimental: For determining the nucleotide cleavage preference of CARD1, the reaction was performed as above, with 1 uM of each RNA oligo (IDT). […] Fluorescent measurements were taken in a TECAN plate reader, using values from when the reaction was complete. 0.5 ul of RNaseI (Thermo Fisher Scientific), which cuts next to all RNA nucleotides, was used as a positive control.

S. aureus viability = assay: CARD1 toxicity assay (cfu enumeration); format: cell-based, Staphylococcus aureus
Experimental: To measure the effect of CARD1 activity on S. aureus viability over time, colonies of S. aureus harbouring pTarget and the specified pCRISPR were launched in liquid culture overnight in triplicate. The next day, cells were diluted 1:100 and grown out for about an hour, and normalized for OD. One aliquot was taken from each culture, and then aTc was added to induce CRISPR targeting and CARD1 activity (to a concentration of 3 ng/ml in FIG. 4c or 125 ng/ml in FIG. 5c). At each timepoint, cell aliquots were removed, centrifuged, resuspended in media lacking aTc, and serial dilutions were plated on solid BHI agar plates with or without aTc. All viable cells should grow on the solid agar plates, but only targeting escapers (cells that recover due to mutations in pTarget or pCRISPR) should form CFUs on plates with aTc.

ΦX174 ssDNA = assay: Next-generation sequencing of ssDNA degradation products (ΦX174); format: biochemical
Experimental: as §2
Without further fragmentation, the purified digested DNA was subjected to the Accel-NGS 1S Plus DNA Library Kit (Swift Biosciences), proceeding according to the manufacturer's protocol, using a 1.5× ratio of magnetic beads (AMPure XP beads by Beckman Coulter) to also include small DNA fragments. One of the library preparation steps involves the addition of on average 8 nucleotides to the 3′ end of the DNA. The 5′ end of the input DNA molecules remains unchanged. Paired-end sequencing was performed on an Illumina MiSeq. The 5′ end of each read R1 represents the start of a DNA molecule, and thus a CARD1 cut site. Using a custom python script, the location of 7,020,067 ΦX174 reads (mapping to Genbank reference NC_001422) and 7,670,616 M13 reads (mapping to Genbank reference X02513) was determined. To account for reads mapping at the circular junctions, 65 nucleotides of the first 5′ end of the maps were copied and added at the 3′ end of the maps. The DNA sequence 20 nucleotides upstream and downstream of the cut sites was extracted using a custom Python script, and the CARD1 cleavage motifs for ΦX174 and the M13 were determined separately using Weblogo3 (38), with basal nucleotide compositions determined by the compositions in each map (ΦX174 with A:24.0, C:21.4, G:23.3, T:31.3, and M13 with A:24.4, C:21.1, G:21.1, T:33.4). For the fragment size analysis, 8 nucleotides were removed from all the reads from the 3′ end pair mate by the “Trim Ends” option in the Geneious Bioinformatics Software platform (39). Using the STAR aligner (version 2.7.3) (40), 7,505,136 reads were successfully mapped to ΦX174, and 8,179,356 reads were successfully mapped to M13, using default arguments with the addition of --alignIntronMax 1 --alignMatesGapMax 6000 --peOverlapNbasesMin 5 --alignEndsProtrude 10 ConcordantPair.

[6] = system: recA, lexA, uvrA and umuC transcripts; assay: RT-qPCR of SOS-induced genes; format: cell-based, Staphylococcus aureus RN4220; settings: after aTc induction; compared to d-CARD1; cells expressing Cas10HD
Experimental: Cells carrying pTarget and a pCRISPR containing either CARD1 or dCARD1 were grown overnight in triplicate, diluted 1/100 into fresh BHI with 10 ug/ml of chloramphenicol and outgrown for an hour. The cells were then diluted to an OD of 0.1. To induce targeting, aTc was added to a final concentration of 250 ng/ml. The cells were incubated with shaking for 20 minutes before being spun down at 6000×g for 5 minutes, and then lysed in PBS with 1 mg/ml of lysostaphin and 2 mg/ml of lysozyme for 10 minutes at 37° C. RNA was purified using Direct-zol RNA miniprep kit (Zymo Research) according to the manufacturer's protocol, followed by DNA depletion using TURBO DNA-free kit (Invitrogen) according to the manufacturer's protocol. To produce cDNA, approximately 2 ug of DNA-depleted RNA was treated using the SuperScript IV Reverse Transcriptase kit (Invitrogen) according to the manufacturer's protocol and random hexamer primers. The RT-qPCR reaction was performed using Fast SYBR Green Master Mix (Life Technologies) with an input of about 100 ng cDNA, in biological triplicate, using […] of each primer, on a QuantStudio 3 qPCR machine (Thermo Fisher). The housekeeping gene rho was used as an internal normalization control (37).

[7] = system: Staphylococcus aureus RN4220; assay: Growth curves, in vivo CARD1 toxicity induction; format: cell-based; settings: pTarget + pCRISPR variant, no antibiotic selection of pTarget
Experimental: For in vivo CARD1 toxicity induction, triplicate RN4220 overnight cultures harbouring pTarget and a pCRISPR are diluted 1:100, outgrown for about an hour, and normalized for OD. Cells are then seeded in a 96 well plate. To induce targeting, 6.25-12.5 ng/ml of anhydrotetracycline (aTc) is added to the appropriate wells. Absorbance at 600 nm is then measured every 10 minutes by a microplate reader (TECAN Infinite 200 PRO). To analyze targeting escapers, cells from the end of the experiment (either cells from wells without aTc, i.e. naïve cells, or cells from wells that recovered later in the time course due to CARD1 toxicity) are re-streaked on BHI agar plates, and individual colonies were launched in liquid culture, diluted the next day, and used for a new time course experiment. From these overnight cultures, plasmid DNA was isolated (QIAgen Spin Miniprep Kit), digested by BamHI-HF (single-cutter for both pTarget and pCRISPR) (New England Biolabs), and visualized by gel electrophoresis. The deletion of important features in pTarget (making it unable to be targeted by pCRISPR) or pCRISPR was confirmed by Sanger sequencing.

[8] = ORF9 and ORF27 transcripts targeted

Cyclic Tetra-Adenylate [cA4]
degradation of RNA oligo by CARD1 in the presence of the cyclic oligoadenylate (Tresu_2185 (CARD1); 60 nucleotide RNA oligo): degraded in the presence of cA4
degradation of ssDNA by Tresu_2185 on addition of the cyclic oligoadenylate (Tresu_2185 (CARD1); circular ΦX174 and M13 ssDNA, 250 nM CARD1, 2.5 uM cA, 5 mM MnCl2, agarose gel): resulted in the degradation of circular ΦX174 and M13 ssDNA
cleavage of dsDNA by Tresu_2185 on addition of the cyclic oligoadenylate (Tresu_2185 (CARD1); supercoiled or linearized ΦX174 dsDNA): did not promote cleavage

B1: CARD1: cA4-activated ssDNA and ssRNA nuclease of Treponema succinifaciens, SEQ ID NO:1; N-terminal CARF domain, C-terminal REase domain (protein, listed as Treponema succinifaciens)
chain: MKETILVNLVSEQTIPNVQFIKWYFNKKQTPMKILLVSTKEMEQKEKSLFIKNALHFSDSFVEWETIHTDGNDISKTENILTDYFRDNEYKNIIVNITGGTKIMSLAAFDFFNNKPNTEIFYQPIGKELQELYPNKQKYDMFEVLSLKEYLDAHGISYKYDNECVKDWNYNKTVYDLCVADNRELIKGMIALQNNSYFNNVYKRKDFLDFTQIEEEKFIAINHPAATKENMIKILQIFGFDVSRIEHKHIRYITGGWFEEYVYQKICNEYHNVDEKNVALNVTIQKGNDKNELDVIYLDKDNKLHVIECKSFVDGNEGNRVLNDALYKLQAIIKSKFGLYVKQHLYTKSIIEKETPLNRAKEFGIDIKDGTQL
nuclease activity on ssDNA ([1]; ΦX174 and M13 ssDNA, smear of products): cA4-activated, non-specific ssDNA nuclease
cation requirement of ssDNA degradation ([1]; ΦX174 ssDNA, with or without MnCl2): required the addition of Mn cation
time after addition of the inducer at which pTarget was cleared (pTarget): 20 minutes
phage titer in cultures of cells that express Cas10^HD (phage Φ12γ3 [2]; [8]): reduce the phage titer
phage propagation (pfu) at different times after infection (phage Φ12γ3 [2]; ORF27 transcript of Φ12γ3 targeted): effectively eliminated Φ12γ3 from the culture
degradation of single-stranded versus double-stranded RNA [3]: Single-stranded RNA, but not double-stranded RNA, was degraded
immunity in cells that express Cas10^HD (phage Φ12γ3 [4]; [8]): able to provide immunity
need of CARD1 nuclease activity for immunity, early target (phage Φ12γ3 [4]; early ORF9 transcript of Φ12γ3 targeted): not required for immunity
survival of cultures after infection, late target (phage Φ12γ3 [4]; late ORF27 transcript of Φ12γ3 targeted): able to survive infection
cuts that occur at the 25 most frequent positions (M13 ssDNA; M13, 5′ end mapping): 31.1%
average fragment length of degradation products (M13 ssDNA; M13, 2 hours timepoint): 150.1 nucleotides
degradation of homopolymer RNA oligos (sequence preference) [5]: able to efficiently degrade RNAs consisting of all three bases
fraction of colonies formed in the absence of aTc that come from bona fide dormant cells (S. aureus viability; compared with colonies resistant to aTc (escapers)): approximately half
colony counts (viable cells) after CARD1 induction (S. aureus viability; three hours of target transcription, plated on media lacking aTc): initial decrease in colony counts of an order of magnitude
average product size (ΦX174 ssDNA; stated for both ΦX174 and M13 ssDNA degradation products): ~150 nucleotides
cleavage site preference (ΦX174 ssDNA; stated for both ΦX174 and M13 ssDNA degradation products, WebLogo): preferentially upstream of T(A/G) sites
cuts that occur at the 25 most frequent positions (ΦX174 ssDNA; ΦX174, 5′ end mapping, 2 hours timepoint): 26.7%
average fragment length of degradation products (ΦX174 ssDNA; ΦX174, 2 hours timepoint): 163.6 nucleotides
expression of recA, lexA, uvrA and umuC (SOS response), normalized against rho [6]: significant increase
growth of cultures (OD600) after addition of aTc [7]: severe growth defect
